B1: TCN-555 (5246_L16) (antibody, V domains shown)
VH: QVQLVQSGAEVKRPGSSVKVSCTASGGIFRKNAISWVRQAPGQGLEWMGGIIAVFNTANYAQKFQNRVKITADESGNTAYMELSSLTSDDTAVYYCASHPKYFYGSGSYPDFWGQGTLVTVSS
VL: QSALTQPRSVSGSPGQSITISCTGGSSDIGASNSVSWYQQHPGKAPKLVIFDVTERPSGVPHRFSGSKSGNTASLTVSGLQPDDEADYFCCAYGGKYLVVFGGGTKVTVL
B2: TCN-551 (5243_D01) (antibody, V domains shown)
VH: EVQLVQSGSEVKKPGESLKISCKGSGYSFSNYWIGWVRHMPGKGLEWMGIIYPGDSDTRYSPSFQGQVTMSADKSSSTVYLQWSSLKASDTAIYYCARRGGHSFGYGSGGDTHSEFDSWGQGTLVTVSS
VL: QSVLTQSPSVSAAPGQKVTISCSGSDSNIGDYFVCWYQHLPGKPPQLLIYENNKRPSGIPDRFSGSKSGTSATLGITGIQTGDEADYYCATWDGSLSAWVFGGGTKLTVL
B3: TCN-553 (5261_C18) (antibody, V domains shown)
VH: QVQVVQSGTEVKKPGSSVKVSCQTSGGRFMSYAITWVRQAPGQGLEWMGGIVPVFGTANYAQKFQGRVTITTDDSTRTAYMELSSLRSEDTAVYYCGFRYGSGYGFDSWGQGTLVTVSS
VL: EIVLTQSPGTLSLSPGERATLSCRASQSVSSSYLAWYQKKPGQAPRLLIYGASTRATGIPDRFTGSGSGTDFTLSISRLEPEDFAVYYCQHFGTSVFTFGGGTKVEIK
B4: TCN-558 (5248_H10b) (antibody, V domains shown)
VH: QVQLVQSGSEVKKPGTSVKVSCTASGSVFTNYGISWVRQAPGQGLEWMGGIIPLFGAAKYAQKFQGRVTITADESTKTVYMELSRLTSKDTAIYFCAKAPRVYEYYFDQWGQGTPVTVSS
VL: EIVMTQFPATLSVSPGERVTLSCRASQSVSNNLAWYQQKPGQPPRLLIYDASTRATGVPAKFSGTGSGTEFTLSISSLQSEDFAVYYCQQYHNWPPSYSFGLGTKLEIK
B5: TCN-546 (5089_L08) (antibody, V domains shown)
VH: QVQLQQWGAGLLKPSETLSLTCGVYGGSLSDYYWSWIRQPPGKGLEWIGEINHSGGTNYNPSLKRRVTISVDTSKKQFSLKMNSVTAADTAVYYCARGTDPDTEVYCRAGNCAAFDFWGQGTLVTVSS
VL: EIVLTQSPGTLSLSPGERATLSCRASHFVIGRAVAWYQQKPGQAPRLLIYGASSRATGIPDRFSGSGSGTDFTLTISRLETEDFAVFYCQHYGSSPRYAFGQGTKLEIK
B6: TCN-552 (5249_I23) (antibody, V domains shown)
VH: QVQVVQSGAEVKKPGSSVRVSCQASGGTFMNYAIIWVRRAPGQGLEWMGGIIPVFPTPNYAQMFQGRVTISTDESRSTSFLELTNLRYEDTAVYYCARRIYHGGNSGFDFWGQGTLVTVSS
VL: EIVLTQSPATLSLSPGERATLSCRASQSVGNYLAWYQQKPGQAPRLLIYDSSNRAPGIPARFSGSGSGTDFTLTISSLAPEDFAVYYCQQRSKWPPMYSFGHGTKLEIK
B7: TCN-542 (5079_A16) (antibody, V domains shown)
VH: QVQLQESGPGLVKPSQTLSLTCTVSGGSISSGNYYWNWVRQHPGKGLEWIGYIYYRGSTFYNPSLKSRVTISIDTSKNQFSLRLSSVTAADTAVYYCAKDTRSSLDNYQYGMDVWGQGTTVTVSS
VL: QTVVTQEPSLTVSPGGTVTLTCASSTGAVTSSYFPNWFQQKPGQAPRPLIYSTTIRHSWTPARFSGSLLGGKAALTLSGVQPEDEADYYCLLYSGGDPVAFGGGTKLTVL

One assay has as its target hemagglutinin (HA) of live influenza A/Solomon Islands/3/06 (H1N1) virus (influenza A virus A/Solomon …). Description: cell-based or functional assay.
In the case of B1, the “% Neutralization” value was determined as 49%.

Take B2: the “% Neutralization” value was 99%.

With B3, the “% Neutralization” value was found to be 44%.

Turning to B4, the “% Neutralization” value was 84%.

Take B5: the “% Neutralization” value is 98%.

On to B6, for which the “% Neutralization” value is 0%.

On to B7, for which the “% Neutralization” value was found to be 99%.

The target of a further assay is hemagglutinin (HA) of live influenza A/Wisconsin/67/05 (H3N2) virus (influenza A virus A/Wisconsin/67/2005 …). Description: cell-based or functional assay.
For B1, the “% Neutralization” value was 5%.

On to B2, for which the “% Neutralization” value stood at 6%.

Consider B3, for which the “% Neutralization” value turned out to be 5%.

Turning to B4, the “% Neutralization” value worked out at 7%.

As for B5, the “% Neutralization” value was 100%.

Consider B6, for which the “% Neutralization” value was 14%.

B7: the “% Neutralization” value is 8%.

The target of a further assay is hemagglutinin (HA) of live influenza A/California/4/09 (H1N1) virus (influenza A virus A/California/04/2009 …). Description: cell-based or functional assay.
As to B5, the “% Neutralization” value amounted to 0%.

For the molecule B7, the “% Neutralization” value was 15%.

These data come from patent US20150104459A1 (published 2015).
